Reference: patent US20160264649A1

Tests used:
Assay in all cases: cell-based or functional assay
[1] = target: HIV-1 Env of isolate 92UG001 (subtype D) (HIV-1)
[2] = target: HIV-1 Env of isolate 92UG005 (subtype D) (HIV-1)
[3] = target: HIV-1 Env of isolate 92UG024 (subtype D) (HIV-1)
[4] = target: HIV-1 Env of isolate 92UG046 (subtype D) (HIV-1)
[5] = target: HIV-1 Env of isolate 92UG114 (subtype D) (HIV-1)
[6] = target: HIV-1 Env of isolate 98CN006 (subtype CRF08_BC) (HIV-1)
[7] = target: HIV-1 Env of isolate 98CN009 (subtype CRF07_BC) (HIV-1)
[8] = target: HIV-1 Env of isolate MGRM-D-001 (subtype D) (HIV-1)
[9] = target: HIV-1 Env of isolate MGRM-D-002 (subtype D) (HIV-1)
[10] = target: HIV-1 Env of isolate MGRM-D-003 (subtype D) (HIV-1)
[11] = target: HIV-1 Env of isolate MGRM-D-004 (subtype D) (HIV-1)
[12] = target: HIV-1 Env of isolate MGRM-D-005 (subtype D) (HIV-1)
[13] = target: HIV-1 Env of isolate MGRM-D-008 (subtype D) (HIV-1)
[14] = target: HIV-1 Env of isolate MGRM-D-011 (subtype D) (HIV-1)
[15] = target: HIV-1 Env of isolate MGRM-D-012 (subtype D) (HIV-1)
[16] = target: HIV-1 Env of isolate MGRM-D-013 (subtype D) (HIV-1)
[17] = target: HIV-1 Env of isolate MGRM-D-014 (subtype D) (HIV-1)
[18] = target: HIV-1 Env of isolate MGRM-D-016 (subtype D) (HIV-1)
[19] = target: HIV-1 Env of isolate MGRM-D-018 (subtype D) (HIV-1)
[20] = target: HIV-1 Env of isolate MGRM-D-019 (subtype D) (HIV-1)
[21] = target: HIV-1 Env of isolate MGRM-D-020 (subtype D) (HIV-1)
[22] = target: HIV-1 Env of isolate MGRM-D-021 (subtype D) (HIV-1)
[23] = target: HIV-1 Env of isolate MGRM-D-022 (subtype D) (HIV-1)
[24] = target: HIV-1 Env of isolate MGRM-D-024 (subtype D) (HIV-1)
[25] = target: HIV-1 Env of isolate MGRM-D-026 (subtype D) (HIV-1)
[26] = target: HIV-1 Env of isolate MGRM-D-028 (subtype D) (HIV-1)
[27] = target: HIV-1 Env of isolate MGRM-D-029 (subtype D) (HIV-1)
[28] = target: HIV-1 Env of isolate MGRM-F1-004 (subtype F) (HIV-1)
[29] = target: HIV-1 Env of isolate MGRM-F1-006 (subtype F) (HIV-1)
[30] = target: HIV-1 Env of isolate MGRM-F1-008 (subtype F) (HIV-1)
[31] = target: HIV-1 Env of isolate MGRM-F1-010 (subtype F) (HIV-1)
[32] = target: HIV-1 Env of isolate MGRM-F1-012 (subtype F) (HIV-1)
[33] = target: HIV-1 Env of isolate MGRM-F1-013 (subtype F) (HIV-1)
[34] = target: HIV-1 Env of isolate MGRM-F1-014 (subtype F) (HIV-1)
[35] = target: HIV-1 Env of isolate MGRM-F1-015 (subtype F) (HIV-1)
[36] = target: HIV-1 Env of isolate MGRM-F1-016 (subtype F) (HIV-1)
[37] = target: HIV-1 Env of isolate MGRM-F1-017 (subtype F) (HIV-1)
[38] = target: HIV-1 Env of isolate MGRM-F1-018 (subtype F) (HIV-1)
[39] = target: HIV-1 Env of isolate MGRM-F1-020 (subtype F) (HIV-1)
[40] = target: HIV-1 Env of isolate MGRM-F1-021 (subtype F) (HIV-1)
[41] = target: HIV-1 Env of isolate MGRM-F1-022 (subtype F) (HIV-1)
[42] = target: HIV-1 Env of isolate MGRM-F1-023 (subtype F) (HIV-1)
[43] = target: HIV-1 Env of pseudovirus isolate MGRM-G-001 (subtype G) (HIV-1)
[44] = target: HIV-1 Env of pseudovirus isolate MGRM-G-004 (subtype G) (HIV-1)
[45] = target: HIV-1 Env of pseudovirus isolate MGRM-G-006 (subtype G) (HIV-1)
[46] = target: HIV-1 Env of pseudovirus isolate MGRM-G-009 (subtype G) (HIV-1)
[47] = target: HIV-1 Env of pseudovirus isolate MGRM-G-011 (subtype G) (HIV-1)
[48] = target: HIV-1 Env of pseudovirus isolate MGRM-G-013 (subtype G) (HIV-1)
[49] = target: HIV-1 Env of pseudovirus isolate MGRM-G-014 (subtype G) (HIV-1)
[50] = target: HIV-1 Env of pseudovirus isolate MGRM-G-015 (subtype G) (HIV-1)
[51] = target: HIV-1 Env of pseudovirus isolate MGRM-G-016 (subtype G) (HIV-1)
[52] = target: HIV-1 Env of pseudovirus isolate MGRM-G-017 (subtype G) (HIV-1)
[53] = target: HIV-1 Env of pseudovirus isolate MGRM-G-019 (subtype G) (HIV-1)
[54] = target: HIV-1 Env of pseudovirus isolate MGRM-G-024 (subtype G) (HIV-1)
[55] = target: HIV-1 Env of pseudovirus isolate MGRM-G-025 (subtype G) (HIV-1)
[56] = target: HIV-1 Env of pseudovirus isolate MGRM-G-027 (subtype G) (HIV-1)
[57] = target: HIV-1 Env of pseudovirus isolate MGRM-G-028 (subtype G) (HIV-1)
[58] = target: envelope of aMLV pseudovirus (negative control)

B1: PGT-126 (antibody, V domains shown)
VH: QPQLQESGPGLVEASETLSLTCTVSGDSTAACDYFWGWVRQPPGKGLEWIGGLSHCAGYYNTGWTYHNPSLKSRLTISLDTPKNQVFLKLNSVTAADTAIYYCARFDGEVLVYHDWPKPAWVDLWGRGTLVTVSS
VL: QSALTQPPSASGSPGQSISISCTGTSNRFVSWYQQHPGKAPKLVIYGVNKRPSGVPDRFSGSKSGNTASLTVSGLQTDDEAVYYCSSLVGNWDVIFGGGTKLTVL
IC50 (neutralization) [1]: > 50 µg/mL | IC50 (neutralization) [2]: 0.037 µg/mL | IC50 (neutralization) [3]: > 50 µg/mL | IC50 (neutralization) [4]: > 50 µg/mL | IC50 (neutralization) [5]: 0.038 µg/mL | IC50 (neutralization) [6]: 0.046 µg/mL | IC50 (neutralization) [7]: 0.019 µg/mL | IC50 (neutralization) [8]: 0.084 µg/mL | IC50 (neutralization) [9]: 0.039 µg/mL | IC50 (neutralization) [10]: 0.021 µg/mL | IC50 (neutralization) [11]: > 50 µg/mL | IC50 (neutralization) [12]: 0.792 µg/mL | IC50 (neutralization) [13]: 43.1 µg/mL | IC50 (neutralization) [14]: 0.009 µg/mL | IC50 (neutralization) [15]: > 50 µg/mL | IC50 (neutralization) [16]: > 50 µg/mL | IC50 (neutralization) [17]: 0.03 µg/mL | IC50 (neutralization) [18]: > 50 µg/mL | IC50 (neutralization) [19]: 0.009 µg/mL | IC50 (neutralization) [20]: > 50 µg/mL | IC50 (neutralization) [21]: 0.023 µg/mL | IC50 (neutralization) [22]: 0.047 µg/mL | IC50 (neutralization) [23]: > 50 µg/mL | IC50 (neutralization) [24]: 0.376 µg/mL | IC50 (neutralization) [25]: > 50 µg/mL | IC50 (neutralization) [26]: > 50 µg/mL | IC50 (neutralization) [27]: > 50 µg/mL | IC50 (neutralization) [28]: 0.063 µg/mL | IC50 (neutralization) [29]: 0.078 µg/mL | IC50 (neutralization) [30]: > 50 µg/mL | IC50 (neutralization) [31]: > 50 µg/mL | IC50 (neutralization) [32]: 0.3 µg/mL | IC50 (neutralization) [33]: > 50 µg/mL | IC50 (neutralization) [34]: > 50 µg/mL | IC50 (neutralization) [35]: > 50 µg/mL | IC50 (neutralization) [36]: > 50 µg/mL | IC50 (neutralization) [37]: > 50 µg/mL | IC50 (neutralization) [38]: 14.9 µg/mL | IC50 (neutralization) [39]: > 50 µg/mL | IC50 (neutralization) [40]: > 50 µg/mL | IC50 (neutralization) [41]: > 50 µg/mL | IC50 (neutralization) [42]: 0.009 µg/mL | IC50 [43]: 0.038 µg/mL | IC50 [44]: > 50 µg/mL | IC50 [45]: > 50 µg/mL | IC50 [46]: > 50 µg/mL | IC50 [47]: 7.32 µg/mL | IC50 [48]: 48.8 µg/mL | IC50 [49]: 0.009 µg/mL | IC50 [50]: > 50 µg/mL | IC50 [51]: > 50 µg/mL | IC50 [52]: > 50 µg/mL | IC50 [53]: 0.018 µg/mL | IC50 [54]: > 50 µg/mL | IC50 [55]: 17.1 µg/mL | IC50 [56]: 0.875 µg/mL | IC50 [57]: 0.012 µg/mL | IC50 [58]: > 50 µg/mL

B2: PGT-127 (antibody, V domains shown)
VH: QPQLQESGPGLVEASETLSLTCTVSGDSTGRCNYFWGWVRQPPGKGLEWIGSLSHCRSYYNTDWTYHNPSLKSRLTISLDTPKNQVFLRLTSVTAADTATYYCARFGGEVLVYRDWPKPAWVDLWGRGTLVVTVS
VL: QSALTQPPSASGSPGQSITISCTGTSNNFVSWYQQYPGKAPKLVIYEVNKRPSGVPDRFSGSKSGSTASLTVSGLQADDEGVYYCSSLVGNWDVIFGGGTKLTVL
IC50 (neutralization) [1]: > 50 µg/mL | IC50 (neutralization) [2]: 1.11 µg/mL | IC50 (neutralization) [3]: > 50 µg/mL | IC50 (neutralization) [4]: > 50 µg/mL | IC50 (neutralization) [5]: 7.09 µg/mL | IC50 (neutralization) [6]: 0.067 µg/mL | IC50 (neutralization) [7]: 0.09 µg/mL | IC50 (neutralization) [8]: 2.23 µg/mL | IC50 (neutralization) [9]: 0.6 µg/mL | IC50 (neutralization) [10]: 0.029 µg/mL | IC50 (neutralization) [11]: > 50 µg/mL | IC50 (neutralization) [12]: 6.04 µg/mL | IC50 (neutralization) [13]: > 50 µg/mL | IC50 (neutralization) [14]: 0.015 µg/mL | IC50 (neutralization) [15]: > 50 µg/mL | IC50 (neutralization) [16]: > 50 µg/mL | IC50 (neutralization) [17]: 0.393 µg/mL | IC50 (neutralization) [18]: > 50 µg/mL | IC50 (neutralization) [19]: 0.021 µg/mL | IC50 (neutralization) [20]: > 50 µg/mL | IC50 (neutralization) [21]: 0.015 µg/mL | IC50 (neutralization) [22]: 0.056 µg/mL | IC50 (neutralization) [23]: > 50 µg/mL | IC50 (neutralization) [24]: 1.95 µg/mL | IC50 (neutralization) [25]: > 50 µg/mL | IC50 (neutralization) [26]: > 50 µg/mL | IC50 (neutralization) [27]: > 50 µg/mL | IC50 (neutralization) [28]: 0.068 µg/mL | IC50 (neutralization) [29]: 7.17 µg/mL | IC50 (neutralization) [30]: > 50 µg/mL | IC50 (neutralization) [31]: > 50 µg/mL | IC50 (neutralization) [32]: > 50 µg/mL | IC50 (neutralization) [33]: > 50 µg/mL | IC50 (neutralization) [34]: > 50 µg/mL | IC50 (neutralization) [35]: > 50 µg/mL | IC50 (neutralization) [36]: > 50 µg/mL | IC50 (neutralization) [37]: > 50 µg/mL | IC50 (neutralization) [38]: 3.59 µg/mL | IC50 (neutralization) [39]: > 50 µg/mL | IC50 (neutralization) [40]: > 50 µg/mL | IC50 (neutralization) [41]: > 50 µg/mL | IC50 (neutralization) [42]: 0.119 µg/mL | IC50 [43]: 0.113 µg/mL | IC50 [44]: > 50 µg/mL | IC50 [45]: > 50 µg/mL | IC50 [46]: > 50 µg/mL | IC50 [47]: > 50 µg/mL | IC50 [48]: 7.7 µg/mL | IC50 [49]: 0.009 µg/mL | IC50 [50]: > 50 µg/mL | IC50 [51]: > 50 µg/mL | IC50 [52]: > 50 µg/mL | IC50 [53]: 0.429 µg/mL | IC50 [54]: > 50 µg/mL | IC50 [55]: 19.3 µg/mL | IC50 [56]: > 50 µg/mL | IC50 [57]: 0.032 µg/mL | IC50 [58]: > 50 µg/mL
